Experimental data reported in paper PMC10383195, “Interactions of the Kv1.1 Channel with Peptide Pore Blockers: A Fluorescent Analysis on Mammalian Cells” (Membranes, 2023).
Bridge positions count the residues as written; N and C are the ends. Peptide text beside a SMILES is read from it.

How the values were obtained:
[1] = molecular target: T1, mKate2-tagged human Kv1.1 (S369T) channel (K-Kv1.1) (Homo sapiens, UniProt Q09470, S369T); assay: Competitive binding of peptide pore blocker and A-HgTx to K-Kv1.1 on the plasma membrane of Neuro2a cells (confocal microscopy); conditions: for Kd: complete medium (closed channels), Neuro2a cells, A-HgTx 2 nM, 60 min, Cheng-Prusoff from DC50, mean ± SEM, two independent experiments, SEM, read-out: Kap (apparent dissociation constant of complex with K-Kv1.1)
T1 construct: these fragments were combined and amplified using terminal primers to obtain the whole mutated gene; expressed in transfected cells; host or cells: mouse neuroblastoma Neuro2a cells, transient transfection with pmKate2-KCNA1m1
Description: To analyze the binding of A-HgTx, A-HgTx (0.25–4 nM) was added to cells in a complete medium for 60 min. To analyze competitive binding, A-HgTx (2 nM), together with the selected peptide (0.05–160 nM), was added to cells in a complete medium for 60 min.
To compare ligand binding with closed and open channels, ligands were added to cells (60 min, 37 °C) in a buffer (20 mM HEPES pH 7.4, 0.9 mM CaCl2, 0.5 mM MgCl2, 0.1% BSA) supplemented with 4 mM KCl and 150 mM NaCl (Na^+ buffer) or with 150 mM KCl (K^+ buffer).
The fluorescence of the K-Kv1.1 and K-Kv1.1wt channels was excited at 561 nm and detected in the 650–700 nm region. A-HgTx fluorescence was excited at 488 nm and detected in the 495–535 nm region. Sequential scanning was used to measure the cellular distributions of A-HgTx and mKate2 fluorescence in order to avoid interference of mKate2 fluorescence with cellular autofluorescence excited at 488 nm.
Quantitative analysis of the interaction of A-HgTx with K-Kv1.1 was carried out in accordance with the procedure developed previously for A-HgTx and the fluorescently labeled Kv1.3 channel. Briefly, the regions of interest with K-Kv1.1 on the plasma membrane were selected in the confocal images and used to create binary (0;1) masks that described the membranous distribution of K-Kv1.1. The confocal images of K-Kv1.1 and A-HgTx were multiplied by the corresponding mask, and the average fluorescence intensities of A-HgTx (Ili) and K-Kv1.1 (Ici) corrected for the background signal were calculated for each i-cell. Ratio Ri = Ili/Ici was calculated and averaged over 15–20 cells to obtain the Rav value and the standard deviation.
To analyze the competitive binding of the studied peptide pore blocker and A-HgTx to K-Kv1.1 on the cellular membrane, Rav data were plotted depending on the blocker concentration (C) at the constant A-HgTx concentration (L) and fitted with the following equation:Rav(C) = Rav0/(1 + C/DC50)(3) where DC50 is the blocker concentration displacing 50% of A-HgTx from the complex with K-Kv1.1, and Rav0 is Rav at C = 0.
The apparent dissociation constant (Kap) of the complex between the studied blocker and the K-Kv1.1 channel was calculated using the Cheng–Prusoff equation:Kap = DC50/(1 + L/Kd).(4)
Two independent experiments were performed, and the Kav data were averaged and presented as mean ± SEM. Fifteen to twenty-five treated cell images were the average value for each point on the curves of A-HgTx binding to the K-Kv1.1 channel.

[2] = system: non-transfected Neuro2a cells; conditions: cited from earlier work
[3] = molecular target: T2, K-Kv1.1 channel (hKv1.1S369T with mKate2) (Homo sapiens, UniProt Q09470, S369T); assay: Whole-cell patch-clamp of currents through K-Kv1.1 in Neuro2a cells; type: cell-based; conditions: HgTx1 2 nM, applied voltage from −10 to 70 mV, n = 10
T2 construct: these fragments were combined and amplified using terminal primers to obtain the whole mutated gene; expressed in transfected cells; host or cells: mouse neuroblastoma Neuro2a cells, transient transfection with pmKate2-KCNA1m1
Description: Membrane ion currents through the K-Kv1.1 channel were recorded at room temperature by the patch-clamp technique using the standard whole-cell configuration as described earlier.
Briefly, Neuro2a cells attached to coverslips (10 mm in diameter) pre-coated with poly-D-lysine were immersed in a buffer (140 mM NaCl, 2.8 mM KCl, 2 mM MgCl2, 2 mM CaCl2, 10 mM glucose, 10 mM HEPES, pH 7.4) and perfused continuously. Micropipettes with a tip resistance of 6–8 MΩ were filled with a pipette solution containing 140 mM KCl, 6 mM CaCl2, 2 mM MgCl2, 2 mM MgATP, 0.4 mM NaGTP, 10 mM HEPES, 20 mM BAPTA/KOH (pH 7.3). The patches were routinely held at a holding potential of −40 mV. The potential was changed from −70 to +70 mV (20 mV step) using 200 ms pulses, which were applied incrementally with an interval of 20 s. Finally, the potential returned to the holding potential.
Cells were measured 24–48 h after transfection. The cells were selected by K-Kv1.1 fluorescence. The cells were analyzed if their input resistance was more than 350 MΩ. The currents were recorded using an EPC-10 amplifier (HEKA Elektronik, Stuttgart, Germany).
[…] The toxins were dissolved in a complete medium.
The measured concentration dependence of current inhibition through the K-Kv1.1 channel by A-HgTx was analyzed with the following equation:Irel(L) = 100/(1 + (IC50/L)^h) (1) where Irel is a decrease in current (%), L is the concentration of A-HgTx, IC50 is the concentration of A-HgTx that induces a 50% decrease in current, and h is the Hill coefficient.

Kv1.3 (Homo sapiens) = Kv1.3 (Homo sapiens) (UniProt P22001); conditions: cited from earlier work
[4] = molecular target: T3, Kv1.1 (K-Kv1.1, mKate2-tagged) (Homo sapiens, UniProt Q09470); assay: competitive confocal fluorescence binding with A-HgTx, complete medium
T3 chain: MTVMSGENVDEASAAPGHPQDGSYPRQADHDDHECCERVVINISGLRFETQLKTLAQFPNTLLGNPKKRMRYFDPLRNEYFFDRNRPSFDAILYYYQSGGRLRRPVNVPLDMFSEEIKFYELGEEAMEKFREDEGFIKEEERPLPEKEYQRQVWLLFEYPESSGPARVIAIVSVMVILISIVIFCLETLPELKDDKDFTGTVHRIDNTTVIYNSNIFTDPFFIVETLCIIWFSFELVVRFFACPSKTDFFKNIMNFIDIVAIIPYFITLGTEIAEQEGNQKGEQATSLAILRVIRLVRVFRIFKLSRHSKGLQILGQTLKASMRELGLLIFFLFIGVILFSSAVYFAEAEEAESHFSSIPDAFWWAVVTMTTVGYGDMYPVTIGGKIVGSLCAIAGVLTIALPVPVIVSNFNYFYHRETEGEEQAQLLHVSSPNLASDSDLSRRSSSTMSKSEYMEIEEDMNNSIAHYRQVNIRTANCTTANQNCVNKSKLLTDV

[5] = molecular target: T3, Kv1.1 (K-Kv1.1, mKate2-tagged); assay: competitive confocal fluorescence binding with A-HgTx, K+ buffer (open state)
[6] = molecular target: T3, Kv1.1 (K-Kv1.1, mKate2-tagged); assay: confocal fluorescence binding on Neuro2a cells, complete medium
[7] = molecular target: T3, Kv1.1 (K-Kv1.1, mKate2-tagged); assay: confocal fluorescence binding on Neuro2a cells, K+ buffer (open state)
[8] = molecular target: T3, Kv1.1 (K-Kv1.1, mKate2-tagged); assay: confocal fluorescence binding on Neuro2a cells, Na+ buffer (closed state)

Chain of Kv1.3 (Homo sapiens) (P22001 whole entry): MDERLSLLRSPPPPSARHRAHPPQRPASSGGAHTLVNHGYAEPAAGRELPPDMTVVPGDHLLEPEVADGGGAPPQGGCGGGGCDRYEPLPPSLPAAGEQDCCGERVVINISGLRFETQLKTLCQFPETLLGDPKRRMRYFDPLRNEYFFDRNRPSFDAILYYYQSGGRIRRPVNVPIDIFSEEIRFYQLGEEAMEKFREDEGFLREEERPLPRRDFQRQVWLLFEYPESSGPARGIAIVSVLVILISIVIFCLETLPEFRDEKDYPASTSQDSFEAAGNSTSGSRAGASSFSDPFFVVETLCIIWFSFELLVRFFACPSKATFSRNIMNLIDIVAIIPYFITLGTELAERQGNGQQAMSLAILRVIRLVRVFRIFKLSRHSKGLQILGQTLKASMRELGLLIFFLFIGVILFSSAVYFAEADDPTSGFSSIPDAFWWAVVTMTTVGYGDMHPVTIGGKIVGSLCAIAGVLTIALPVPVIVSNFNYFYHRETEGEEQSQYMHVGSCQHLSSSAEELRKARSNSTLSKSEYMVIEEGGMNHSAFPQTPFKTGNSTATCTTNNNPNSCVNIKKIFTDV

In the case of charybdotoxin [ChTx], the “effect of channel state (closed or open) on affinity of K-Kv1.1 for the peptide” value ([1]; A-HgTx (2 nM) displacement compared in complete medium, Na+ and K+ buffers) is given as “does not affect the affinity”, the “effect on binding of A-HgTx (2 nM) to K-Kv1.1” value ([1]; ChTx 100 nM) is given as “does not affect the binding of A-HgTx to K-Kv1.1” and the “sensitivity of background currents to the blocker” value [2] is given as “insensitive”.

For `CC[C@H](C)[C@H](NC(=O)[C@H](CCC(=O)O)NC(=O)[C@@H](NC(=O)CN)C(C)C)C(=O)N[C@@H](CC(N)=O)C(=O)N[C@H](C(=O)N[C@@H](CCCCN)C(=O)N[C@H]1CSSC[C@@H]2NC(=O)[C@H](CCCCN)NC(=O)CNC(=O)[C@H](Cc3ccccc3)NC(=O)[C@H](CCCNC(=N)N)NC(=O)[C@H](CCSC)NC(=O)CNC(=O)[C@H](C)NC(=O)[C@H](CC(=O)O)NC(=O)[C@H](CCCCN)NC(=O)[C@@H]3CSSC[C@@H](C(=O)N[C@H](C(=O)N4CCC[C@H]4C(=O)N[C@@H](CCCCN)C(=O)O)[C@@H](C)O)NC(=O)[C@H](Cc4c[nH]cn4)NC(=O)[C@H](CSSC[C@H](NC(=O)[C@H](CCC(N)=O)NC(=O)[C@@H]4CCCN4C(=O)[C@H](CO)NC(=O)CNC(=O)[C@H](CO)NC1=O)C(=O)N[C@@H](CC(C)C)C(=O)N[C@@H](CCCCN)C(=O)N1CCC[C@H]1C(=O)N3)NC(=O)[C@H](CCCCN)NC(=O)[C@H](CCCNC(=N)N)NC(=O)[C@H](CC(N)=O)NC(=O)[C@H](CCSC)NC2=O)C(C)C` [KTx1, kaliotoxin 1], the Kd [1] was 120 ± 80 pM.

In the case of `CC[C@H](C)[C@@H]1NC(=O)CNC(=O)[C@H](Cc2ccccc2)NC(=O)[C@H](CCC(N)=O)NC(=O)[C@H](C)NC(=O)[C@H](CCCCN)NC(=O)[C@@H]2CSSC[C@@H](C(=O)N[C@@H](Cc3ccc(O)cc3)C(=O)N3CCC[C@H]3C(=O)N[C@@H](Cc3c[nH]cn3)C(=O)O)NC(=O)[C@H](CCCCN)NC(=O)[C@@H]3CSSC[C@H](NC(=O)[C@H](CCC(N)=O)NC(=O)[C@H](CCCCN)NC(=O)[C@@H]4CCCN4C(=O)[C@H](CO)NC(=O)[C@H]([C@@H](C)O)NC(=O)[C@@H](NC(=O)[C@H](CCCCN)NC(=O)[C@@H](NC(=O)[C@H](CC(=O)O)NC(=O)[C@@H](NC(=O)[C@@H](NC(=O)[C@@H](N)[C@@H](C)O)C(C)C)[C@@H](C)CC)C(C)C)CSSC[C@H](NC(=O)[C@H](CCCCN)NC(=O)[C@H](C)NC(=O)CNC(=O)[C@H](C)NC(=O)[C@H](CCCNC(=N)N)NC1=O)C(=O)N[C@@H](CCSC)C(=O)N[C@@H](CC(N)=O)C(=O)NCC(=O)N[C@@H](CCCCN)C(=O)N3)C(=O)N[C@@H](CC(C)C)C(=O)N1CCC[C@H]1C(=O)N1CCC[C@H]1C(=O)N2` [HgTx1, hongotoxin 1] (H-TVIDVKCTSPKQCLPPCKAQFGIRAGAKCMNGKCKCYPH-OH; disulfide 7-29, 13-34, 17-36), the “decrease in the peak current amplitude” value [3] is reported as 73 ± 8%.

For “A-HgTx (Atto-labelled hongotoxin 1) (from UniProt P59847)”, the Kd (Kv1.3 (Homo sapiens)) is given as 300 pM.

Work on `CC[C@H](C)[C@@H]1NC(=O)[C@@H]2CSSC[C@@H]3NC(=O)[C@H](CCCCN)NC(=O)[C@H](CCCNC(=N)N)NC(=O)[C@H](CC(N)=O)NC(=O)[C@H](CCSC)NC(=O)[C@H](CSSC[C@H](NC(=O)[C@H](CO)NC(=O)[C@@H](NC(=O)[C@H](CC(N)=O)NC(=O)[C@@H](NC(=O)[C@@H]4CCCN4C(=O)[C@@H](NC(=O)CN)C(C)C)[C@@H](C)CC)C(C)C)C(=O)N[C@@H]([C@@H](C)O)C(=O)NCC(=O)N[C@@H](CO)C(=O)N4CCC[C@H]4C(=O)N[C@@H](CCC(N)=O)C(=O)N2)NC(=O)[C@H](CCCCN)NC(=O)CNC(=O)[C@H](Cc2ccccc2)NC(=O)[C@H](CCCNC(=N)N)NC(=O)[C@H](CCSC)NC(=O)CNC(=O)[C@H](C)NC(=O)[C@H](CC(=O)O)NC(=O)[C@H](CCCCN)NC(=O)[C@H](CSSC[C@@H](C(=O)N[C@H](C(=O)N2CCC[C@H]2C(=O)N[C@@H](CCCCN)C(=O)O)[C@@H](C)O)NC(=O)[C@H](Cc2c[nH]cn2)NC3=O)NC(=O)[C@@H]2CCCN2C(=O)[C@H](CCCCN)NC1=O` [AgTx2, agitoxin 2] yielded a Kd [1] of 1500 ± 700 pM.

B1: hongotoxin 1 (HgTx1) (peptide)
chain: TVIDVKCTSPKQCLPPCKAQFGIRAGAKCMNGKCKCYPH
B1 gave a Kd [4] of 30 pM and a Kd [5] of 50 pM.

B2: Atto 488-hongotoxin 1 (A-HgTx) (peptide)
chain: TVIDVKCTSPKQCLPPCKAQFGIRAGAKCMNGKCKCYPH
Work on B2 yielded a Kd [6] of 700 pM, a Kd [7] of 800 pM and a Kd [8] of 900 pM.

B3: margatoxin (MgTx) (peptide)
chain: TIINVKCTSPKQCLPPCKAQFGQSAGAKCMNGKCKCYPH
B3 showed a Kd [4] of 300 pM and a Kd [5] of 500 pM.

B4: Ce1 (peptide)
chain: TVINVKCTSPKQCLKPCKDLYGPHAGAKCMNGKCKCYNN
Work on B4 yielded a Kd [4] of 11000 pM and a Kd [5] of 18000 pM.
